Results from paper PMC11966256.

Tests used:
[1] = biological target: HsLARP6(73-183) La domain (Homo sapiens, UniProt Q9BRS8); assay: analytical SEC
[2] = biological target: HsLARP6(84-183) La domain (Homo sapiens, UniProt Q9BRS8); assay: analytical SEC
[3] = biological target: Cy5-HsLARP6(73-183)G74C La domain (Homo sapiens, UniProt Q9BRS8, G74C); assay: MST

In the case of GGCACAAGGAGUCUGCAUGUCUAAGUGCUAGACAUGCUCAGCUUUGUG (structured_RNA) [5'SL RNA (a2(I)), 48 nt], the binding result [1] is reported as “binds”, the binding result [2] is reported as “binds” and the Kd [3] is reported as 4.87 ± 0.15 nM.
